Laboratory results published in patent publication US20220348661A1 (HARBOUR BIOMED SHANGHAI, published 2022).

Assays:
human CD3 [1] = target: T1, human CD3 (human, UniProt P07766 23-207; P09693 23-182; P04234 22-171; P20963 22-164); assay: flow cytometry on human pan-T cells; MFI at 7.4 or 10 µg/ml relative to PR000260
T1 construct: whole, on cells; SP34 is described as an anti-human CD3e antibody; also called human TCR/CD3 complex; CD3 on human pan-T cells
Excerpt: (§1) The flow cytometryFACS was used to analyse the binding of the CD3 antibody to CD3-expressing cells, where the CD3-expressing cells could be: CHOK1 cells overexpressing human CD3 or HEK 293 cells (plasmids encoding the ORF of γ, δ, ε, and ζ chains of human-derived CD3 and plasmids encoding the ORF of α and β chains of human TCR were co-transfected with host cells CHOK1 (ATCC, CCL-61) or HEK293 (ATCC, CRL-1573) to construct stable cell lines expressing the structure of the human TCR/CD3 complex); CHOK1 or HEK293 cells overexpressing cynomolgus monkey CD3; human pan-T cells (isolated with the human pan-T cell isolation kit (Miltenyi, #130-096-535) from PBMC); cynomolgus monkey pan-T cells. Specifically, the collected cells were washed twice with PBS containing 2% FBS (FACS buffer), and resuspended with FACS buffer, divided into 96 well plates with 1×10⁵ cells per well, centrifuged at 500 g for 5 minutes. The supernatant was discarded, and 100 μl of pre-gradient diluted CD3 antibody was added, then incubating for 1 hour at room temperature and washing twice with FACS buffer. The cells were resuspended with FACS buffer diluted with secondary antibody Alexa Fluor 488 AffiniPure Goat Anti-Human IgG, Fcγ fragment specific (Jackson ImmunoResearch, #109-545-098), then incubated at room temperature in the dark for 30 minutes. The cells were washed twice with FACS buffer, and resuspended with 200 μl FACS buffer. The fluorescent luminescence signal value were read by flow cytometry (BD FACS CANTOII or ACEA NovoCyte), and the resulted data were processed and analyzed by software FlowJo v10 (FlowJo, LLC). The software GraphPad Prism 8 was used for data processing and graphical analysis, and parameters such as binding curves and EC50 values can be obtained by four-parameter nonlinear fitting.
FIG. 7(A) to (G) show the binding ability of the CD3 antibodies obtained in the Example 4.2 (including PR000260 and its mutants) to human pan-T cells, respectively. The fluorescence intensity MFI of the CD3 antibody binding to human pan-T cells and the relative ratio relative to the initial antibody PR000260 were calculated when the antibody concentration was 7.4 or 10 μg/ml.

human B7H4 = target: T2, human B7H4 (human, UniProt Q7Z7D3 25-282); assay: flow cytometry on SK-BR-3 cells expressing human B7H4
T2 construct: whole, on cells; also called B7H4 on tumor cell SK-BR-3
T2 sequence (looked up): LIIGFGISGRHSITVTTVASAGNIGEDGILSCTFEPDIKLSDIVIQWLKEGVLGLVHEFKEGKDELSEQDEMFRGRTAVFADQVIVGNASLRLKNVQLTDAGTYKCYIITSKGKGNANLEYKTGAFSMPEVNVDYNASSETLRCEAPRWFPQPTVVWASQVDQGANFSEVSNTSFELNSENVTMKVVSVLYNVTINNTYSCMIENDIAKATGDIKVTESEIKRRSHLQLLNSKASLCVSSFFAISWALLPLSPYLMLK
Experimental: This Example investigates the ability of the bispecific antibody binding tumor cell SK-BR-3 (ATCC, HTB-30) expressing human B7H4. Specifically, collected cell SK-BR-3 suspension, adjusted the cell density to 1×10⁶/ml, and inoculated them at 100 μl/well in a 96 well V-bottom plate (Corning, #3894); subsequently, the antibody to be tested with a concentration 2-fold of final concentration obtained by 3-fold gradient dilution was added at volume of 100 μl/well. Cells were incubated at 4° C. in the dark for 2 hours. Afterwards, the cells were rinsed twice with 100 μl/well of pre-chilled PBS, centrifuged at 500 g, 4° C. for 5 minutes. The supernatant was discarded. Then added 100 μl/well of secondary antibody Alexa Fluor 488 AffiniPure Goat Anti-Human IgG, Fcγ fragment specific (Jackson ImmunoResearch, #109-545-098), and incubated the cells from light at 4° C. in the dark for 1 hour. Then the cells were rinsed twice with 100 μl/well of pre-chilled PBS, centrifuged at 500 g, for 5 minutes. The supernatant was discarded. Finally, the cells were resuspended with 200 μL/well of pre-chilled PBS. The fluorescent luminescence signal value were read by flow cytometry (BD FACS CANTOII or ACEA NovoCyte), and the resulted data were processed and analyzed by software FlowJo v10 (FlowJo, LLC). […]

human ROR1 = target: T3, human ROR1 (human, UniProt Q01973 30-937); assay: flow cytometry on Panc-1 cells expressing human ROR1
T3 construct: whole, on cells; also called ROR1 on tumor cell Panc-1
T3 sequence (Q01973 30-937): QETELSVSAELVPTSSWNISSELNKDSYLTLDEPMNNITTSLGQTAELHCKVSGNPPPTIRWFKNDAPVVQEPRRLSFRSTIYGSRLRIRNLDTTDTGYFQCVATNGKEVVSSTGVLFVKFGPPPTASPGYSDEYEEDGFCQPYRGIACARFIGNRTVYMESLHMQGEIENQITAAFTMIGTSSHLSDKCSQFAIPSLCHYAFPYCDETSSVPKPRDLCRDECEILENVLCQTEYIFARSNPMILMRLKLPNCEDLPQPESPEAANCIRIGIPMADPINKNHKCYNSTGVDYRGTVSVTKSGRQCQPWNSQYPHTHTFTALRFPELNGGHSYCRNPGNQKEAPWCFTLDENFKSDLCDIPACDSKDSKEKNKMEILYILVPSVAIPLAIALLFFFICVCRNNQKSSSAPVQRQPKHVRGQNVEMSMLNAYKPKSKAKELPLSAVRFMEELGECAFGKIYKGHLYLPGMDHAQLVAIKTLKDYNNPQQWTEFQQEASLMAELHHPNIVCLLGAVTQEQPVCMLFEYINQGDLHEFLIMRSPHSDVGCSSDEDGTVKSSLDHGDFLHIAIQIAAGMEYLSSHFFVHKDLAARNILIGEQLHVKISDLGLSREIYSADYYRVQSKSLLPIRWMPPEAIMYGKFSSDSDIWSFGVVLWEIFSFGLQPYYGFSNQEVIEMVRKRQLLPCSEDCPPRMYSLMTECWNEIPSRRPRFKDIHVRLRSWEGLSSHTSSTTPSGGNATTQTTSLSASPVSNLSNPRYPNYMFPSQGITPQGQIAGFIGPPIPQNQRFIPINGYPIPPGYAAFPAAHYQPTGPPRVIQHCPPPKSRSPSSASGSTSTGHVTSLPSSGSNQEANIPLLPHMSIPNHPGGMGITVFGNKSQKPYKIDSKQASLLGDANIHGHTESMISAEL
Experimental: This Example investigates the ability of the bispecific antibody binding tumor cell Panc-1(ATCC, CRL-1469) expressing human ROR1. Specifically, collected cell Panc-1 suspension, adjusted the cell density to 1×10⁶/ml, and inoculated them at 100 μl/well in a 96 well V-bottom plate (Corning, #3894); subsequently, the antibody to be tested with a concentration 2-fold of final concentration obtained by 3-fold gradient dilution was added at volume of 100 μl/well. Cells were incubated at 4° C. in the dark for 2 hours. Afterwards, the cells were rinsed twice with 100 μl/well of pre-chilled PBS, centrifuged at 500 g, 4° C. for 5 minutes. The supernatant was discarded. Then added 100 μl/well of fluorescent secondary antibody Alexa Fluor 488 AffiniPure Goat Anti-Human IgG, Fcγ fragment specific (Jackson ImmunoResearch, #109-545-098), and incubated the cells from light at 4° C. in the dark for 1 hour. Then the cells were rinsed twice with 100 μl/well of pre-chilled PBS, centrifuged at 500 g, for 5 minutes. The supernatant was discarded. Finally, the cells were resuspended with 200 μL/well of pre-chilled PBS. The fluorescent luminescence signal value were read by flow cytometry (BD FACS CANTOII or ACEA NovoCyte), and the resulted data were processed and analyzed by software FlowJo v10 (FlowJo, LLC). […]

human CD3 [2] = target: T1, human CD3; assay: flow cytometry on recombinant CHOK1 cells overexpressing human CD3
Excerpt: as §1, with “The cells were resuspended with FACS buffer diluted with secondary antibody Alexa Fluor 488 AffiniPure Goat Anti-Human IgG, Fcγ fragment specific (Jackson ImmunoResearch, #109-545-098), then incubated at room temperature in the dark for 30 minutes. The cells were washed twice with FACS buffer, and resuspended with 200 μl FACS buffer.” left out, “The software GraphPad Prism 8 was used for data processing and graphical analysis, and parameters such as binding curves and EC50 values can be obtained by four-parameter nonlinear fitting.” left out

human CD3 [3] = target: T1, human CD3; assay: flow cytometry on human pan-T cells

T1 sequence (P07766 23-207, chain 1 of 4): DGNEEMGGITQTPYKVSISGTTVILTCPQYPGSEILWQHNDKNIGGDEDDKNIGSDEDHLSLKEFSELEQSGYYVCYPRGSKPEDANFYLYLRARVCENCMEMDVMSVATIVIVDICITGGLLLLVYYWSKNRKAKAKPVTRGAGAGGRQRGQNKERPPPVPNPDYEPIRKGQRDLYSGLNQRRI
T1 sequence (P09693 23-182, chain 2 of 4): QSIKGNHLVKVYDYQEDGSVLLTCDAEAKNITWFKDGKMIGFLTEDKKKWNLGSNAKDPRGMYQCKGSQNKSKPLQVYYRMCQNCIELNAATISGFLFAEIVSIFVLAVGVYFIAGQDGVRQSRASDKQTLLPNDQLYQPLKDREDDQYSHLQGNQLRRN
T1 sequence (P04234 22-171, chain 3 of 4): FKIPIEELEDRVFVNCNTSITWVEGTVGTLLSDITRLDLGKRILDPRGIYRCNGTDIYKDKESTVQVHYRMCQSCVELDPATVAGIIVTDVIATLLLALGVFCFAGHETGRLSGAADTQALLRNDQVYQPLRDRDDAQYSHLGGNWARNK
T1 sequence (P20963 22-164, chain 4 of 4): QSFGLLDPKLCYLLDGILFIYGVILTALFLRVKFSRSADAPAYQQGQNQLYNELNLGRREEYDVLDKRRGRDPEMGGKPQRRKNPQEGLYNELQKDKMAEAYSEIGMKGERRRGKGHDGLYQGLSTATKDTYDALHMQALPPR

B1: PR002472 (antibody, human IgG1, kappa, L234A L235A, V domains shown)
VH: EVQLLESGGGLVQPGGSLRLSCAASGFTFNTYAMNWVRQAPGKGLEWVSRIRSKYNNYATYYADSVKDRFTISRDNSKNTLYLQMNSLRAEDTAVYYCAKHGNFGNSYVSWFAYWGQGTLVTVSS
VL: DAQMTQSPSSLSASVGDRVTITCRSSTGAVTTSNYANWVQQKPGKAPKGLIGGTNKRAPGVPSRFSGSLSGDDATLTISSLQPEDFATYFCALWYSNLWVFGGGTKVEIKR
notes: humanized SP34 variant, IgG1 LALA; very low expression yield; also called VH3230/VK1393 IgG
Human CD3 [1]
  binding result: binds

B2: B7H4 antibody PR000014 (antibody, V domains shown)
VH: EVQLVQSGAEVKKPGASVKVSCKASGYTFTSYWIGWVRQAPGQGLEWIGDIYPGGGYTNYNEKFKGRVTITRDTSTSTAYLELSSLRSEDTAVYYCARLAGSSYRGAMDSWGQGTLVTVSS
VL: DIQMTQSPSSLSASVGDRVTITCKASQGFNKYVAWYQQKPGKAPKLLIYYTSTLQPGVPSRFSGSGSGRDYTLTISSLQPEDFATYYCLQYGDLLYAFGQGTKVEIKR
notes: variable region derived from WO2016040724; also called recombinant IgG antibody PR000014
Human B7H4
  binding result: binds

B3: ROR1 antibody PR000374 (antibody, human IgG1, kappa, V domains shown)
VH: EVQLVESGGGLVQPGRSLRLSCTASGSDINDYPITWVRQAPGQGLEWIGFINSGGSTWYASWVKGRFTISRDDSKSIAYLQMNSLKTEDTAVYYCARGYSTYYRDFNIWGQGTLVTVSS
VL: DIQMTQSPSSLSASVGDRVTINCQASQSIDSNLAWFQQKPGQPPKLLIYRASNLASGVPDRFSGSGSGTDFTLTISSLEAEDVATYYCLGGVGAVSYRTSFGGGTKVEIKR
notes: variable region derived from WO2016094873; also called recombinant IgG antibody PR000374
Human ROR1
  binding result: binds

B4: SP34 murine-human chimeric recombinant antibody PR000260 (antibody, human IgG1, lambda, L234A L235A, V domains shown)
VH: EVQLVESGGGLVQPKGSLKLSCAASGFTFNTYAMNWVRQAPGKGLEWVARIRSKYNNYATYYADSVKDRFTISRDDSQSILYLQMNNLKTEDTAMYYCVRHGNFGNSYVSWFAYWGQGTLVTVSA
VL: QAVVTQESALTTSPGETVTLTCRSSTGAVTTSNYANWVQEKPDHLFTGLIGGTNKRAPGVPARFSGSLIGDKAALTITGAQTEDEAIYFCALWYSNLWVFGGGTKLTVLG
notes: IgG1 LALA, lambda; made in HEK293; also called SP34 chimeric antibody; PR000260(SP34)
Human CD3 [2]
  binding result: binds

B5: bispecific antibody PR002883 targeting B7H4xCD3 (bispecific antibody)
heavy 1: QAVVTQEPSLTVSPGGTVTLTCRSSTGAVTTSNYANWVQQKPGQAPRGLIGGTNKRAPWTPARFSGSLLGDKAALTLLGAQPEDEAEYFCALWYSNLWVFGGGTKLTVLGGGQSGQGGSGGGGSEVQLVESGGGLVQPGGSLKLSCAASGFTFNTYAMNWVRQASGKGLEWVGRIRSKYNNYATYYADSVKDRFTISRDDSKSTLYLQMNSLKTEDTAVYYCVRHGNFGNSYVSWFAYWGQGTLVTVSSASEPKSSDKTHTCPPCPAPEAAGGPSVFLFPPKPKDTLMISRTPEVTCVVVDVSHEDPEVKFNWYVDGVEVHNAKTKPREEQYNSTYRVVSVLTVLHQDWLNGKEYKCKVSNKALGAPIEKTISKAKGQPREPQVYTLPPCREEMTKNQVSLWCLVKGFYPSDIAVEWESNGQPENNYKTTPPVLDSDGSFFLYSKLTVDKSRWQQGNVFSCSVMHEALHNHYTQKSLSLSPGK
heavy 2: EVQLVQSGAEVKKPGASVKVSCKASGYTFTSYWIGWVRQAPGQGLEWIGDIYPGGGYTNYNEKFKGRVTITRDTSTSTAYLELSSLRSEDTAVYYCARLAGSSYRGAMDSWGQGTLVTVSSASTKGPSVFPLAPSSKSTSGGTAALGCLVKDYFPEPVTVSWNSGALTSGVHTFPAVLQSSGLYSLSSVVTVPSSSLGTQTYICNVNHKPSNTKVDKKVEPKSCDKTHTCPPCPAPEAAGGPSVFLFPPKPKDTLMISRTPEVTCVVVDVSHEDPEVKFNWYVDGVEVHNAKTKPREEQYNSTYRVVSVLTVLHQDWLNGKEYKCKVSNKALGAPIEKTISKAKGQPREPQVCTLPPSREEMTKNQVSLSCAVKGFYPSDIAVEWESNGQPENNYKTTPPVLDSDGSFFLVSKLTVDKSRWQQGNVFSCSVMHEALHNHYTQKSLSLSPGK
light: DIQMTQSPSSLSASVGDRVTITCKASQGFNKYVAWYQQKPGKAPKLLIYYTSTLQPGVPSRFSGSGSGRDYTLTISSLQPEDFATYYCLQYGDLLYAFGQGTKVEIKRTVAAPSVFIFPPSDEQLKSGTASVVCLLNNFYPREAKVQWKVDNALQSGNSQESVTEQDSKDSTYSLSSTLTLSKADYEKHKVYACEVTHQGLSSPVTKSFNRGEC
notes: asymmetric three-chain structure, LALAPG; SDS-PAGE purity 70% after one-step purification; also called B7H4×CD3 bispecific antibody
Human CD3 [3]
  binding result: binds

B6: bispecific antibody PR002885 targeting ROR1xCD3 (bispecific antibody, human IgG1, kappa, L234A L235A)
heavy 1: QAVVTQEPSLTVSPGGTVTLTCRSSTGAVTTSNYANWVQQKPGQAPRGLIGGTNKRAPWTPARFSGSLLGDKAALTLLGAQPEDEAEYFCALWYSNLWVFGGGTKLTVLGGGQSGQGGSGGGGSEVQLVESGGGLVQPGGSLKLSCAASGFTFNTYAMNWVRQASGKGLEWVGRIRSKYNNYATYYADSVKDRFTISRDDSKSTLYLQMNSLKTEDTAVYYCVRHGNFGNSYVSWFAYWGQGTLVTVSSASEPKSSDKTHTCPPCPAPEAAGGPSVFLFPPKPKDTLMISRTPEVTCVVVDVSHEDPEVKFNWYVDGVEVHNAKTKPREEQYNSTYRVVSVLTVLHQDWLNGKEYKCKVSNKALGAPIEKTISKAKGQPREPQVYTLPPCREEMTKNQVSLWCLVKGFYPSDIAVEWESNGQPENNYKTTPPVLDSDGSFFLYSKLTVDKSRWQQGNVFSCSVMHEALHNHYTQKSLSLSPGK
heavy 2: EVQLVESGGGLVQPGRSLRLSCTASGSDINDYPITWVRQAPGQGLEWIGFINSGGSTWYASWVKGRFTISRDDSKSIAYLQMNSLKTEDTAVYYCARGYSTYYRDFNIWGQGTLVTVSSASTKGPSVFPLAPSSKSTSGGTAALGCLVKDYFPEPVTVSWNSGALTSGVHTFPAVLQSSGLYSLSSVVTVPSSSLGTQTYICNVNHKPSNTKVDKKVEPKSCDKTHTCPPCPAPEAAGGPSVFLFPPKPKDTLMISRTPEVTCVVVDVSHEDPEVKFNWYVDGVEVHNAKTKPREEQYNSTYRVVSVLTVLHQDWLNGKEYKCKVSNKALGAPIEKTISKAKGQPREPQVCTLPPSREEMTKNQVSLSCAVKGFYPSDIAVEWESNGQPENNYKTTPPVLDSDGSFFLVSKLTVDKSRWQQGNVFSCSVMHEALHNHYTQKSLSLSPGK
light: DIQMTQSPSSLSASVGDRVTINCQASQSIDSNLAWFQQKPGQPPKLLIYRASNLASGVPDRFSGSGSGTDFTLTISSLEAEDVATYYCLGGVGAVSYRTSFGGGTKVEIKRTVAAPSVFIFPPSDEQLKSGTASVVCLLNNFYPREAKVQWKVDNALQSGNSQESVTEQDSKDSTYSLSSTLTLSKADYEKHKVYACEVTHQGLSSPVTKSFNRGEC
notes: asymmetric three-chain structure, LALAPG; SDS-PAGE purity 70% after one-step purification; also called ROR1×CD3 bispecific antibody
Human CD3 [3]
  binding result: binds
